Results from patent publication US20240117018A1.

How the values were obtained:
Assay in all cases: cell-based or functional assay
[1] = target: HIV-1 Env of pseudovirus 3016.v5.c45 (HIV-1)
[2] = target: HIV-1 Env of pseudovirus C4118.c09 (HIV-1)
[3] = target: HIV-1 Env of pseudovirus 231966.c02 (HIV-1)
[4] = target: HIV-1 Env of pseudovirus X1193_c1 (HIV-1)
[5] = target: HIV-1 Env of pseudovirus P1981_C5_3 (HIV-1)
[6] = target: HIV-1 Env of pseudovirus BJOX025000.01.1 (HIV-1)
[7] = target: HIV-1 Env of pseudovirus BJOX009000.02.4 (HIV-1)
[8] = target: HIV-1 Env of pseudovirus X2131_C1_B5 (HIV-1)
[9] = target: HIV-1 Env of pseudovirus R1166.c01 (HIV-1)
[10] = target: HIV-1 Env of pseudovirus X1632_S2_B10 (HIV-1)
[11] = target: HIV-1 Env of pseudovirus 235-47 (HIV-1)
[12] = target: HIV-1 Env of pseudovirus 620345.c01 (HIV-1)
[13] = target: HIV-1 Env of pseudovirus C3347.c11 (HIV-1)
[14] = target: HIV-1 Env of pseudovirus 3817.v2.c59 (HIV-1)
[15] = target: HIV-1 Env of pseudovirus 6811.v7.c18 (HIV-1)
[16] = target: HIV-1 Env of pseudovirus 89-F1_2_25 (HIV-1)
[17] = target: HIV-1 Env of pseudovirus 211-9 (HIV-1)
[18] = target: HIV-1 Env of pseudovirus BJOX015000.11.5 (HIV-1)
[19] = target: HIV-1 Env of pseudovirus R2184.c04 (HIV-1)
[20] = target: HIV-1 Env of pseudovirus 6540.v4.c1 (HIV-1)
[21] = target: HIV-1 Env of pseudovirus T251-18 (HIV-1)
[22] = target: HIV-1 Env of pseudovirus C1080.c03 (HIV-1)
[23] = target: HIV-1 Env of pseudovirus 6545.v4.c1 (HIV-1)
[24] = target: HIV-1 Env of pseudovirus 231965.c01 (HIV-1)
[25] = target: HIV-1 Env of pseudovirus 6041.v3.c23 (HIV-1)
[26] = target: HIV-1 Env of pseudovirus 3301.v1.c24 (HIV-1)
[27] = target: HIV-1 Env of pseudovirus T255-34 (HIV-1)
[28] = target: HIV-1 Env of pseudovirus 6480.v4.c25 (HIV-1)
[29] = target: HIV-1 Env of pseudovirus 3103.v3.c10 (HIV-1)
[30] = target: HIV-1 Env of pseudovirus BJOX028000.10.3 (HIV-1)
[31] = target: HIV-1 Env of pseudovirus 6952.v1.c20 (HIV-1)

PG16 (antibody)
IC50 neutralization (TZM.bl) [1]: > 50 µg/mL | IC80 neutralization (TZM.bl) [1]: > 50 µg/mL | IC50 neutralization (TZM.bl) [2]: 0.022 µg/mL | IC80 neutralization (TZM.bl) [2]: 0.143 µg/mL | IC50 neutralization (TZM.bl) [3]: 0.007 µg/mL | IC80 neutralization (TZM.bl) [3]: 0.031 µg/mL | IC50 neutralization (TZM.bl) [4]: 0.018 µg/mL | IC80 neutralization (TZM.bl) [4]: 0.11 µg/mL | IC50 neutralization (TZM.bl) [5]: 0.376 µg/mL | IC80 neutralization (TZM.bl) [5]: > 50 µg/mL | IC50 neutralization (TZM.bl) [6]: 0.071 µg/mL | IC80 neutralization (TZM.bl) [6]: > 50 µg/mL | IC50 neutralization (TZM.bl) [7]: 1.19 µg/mL | IC80 neutralization (TZM.bl) [7]: 22.1 µg/mL | IC50 neutralization (TZM.bl) [8]: 0.024 µg/mL | IC80 neutralization (TZM.bl) [8]: 0.139 µg/mL | IC50 neutralization (TZM.bl) [9]: 0.28 µg/mL | IC80 neutralization (TZM.bl) [9]: 4.38 µg/mL | IC50 neutralization (TZM.bl) [10]: 0.012 µg/mL | IC80 neutralization (TZM.bl) [10]: 0.076 µg/mL | IC50 neutralization (TZM.bl) [11]: 0.092 µg/mL | IC80 neutralization (TZM.bl) [11]: 4.51 µg/mL | IC50 neutralization (TZM.bl) [12]: > 50 µg/mL | IC80 neutralization (TZM.bl) [12]: > 50 µg/mL | IC50 neutralization (TZM.bl) [13]: 0.008 µg/mL | IC80 neutralization (TZM.bl) [13]: 0.045 µg/mL | IC50 neutralization (TZM.bl) [14]: 0.008 µg/mL | IC80 neutralization (TZM.bl) [14]: 0.06 µg/mL | IC50 neutralization (TZM.bl) [15]: > 50 µg/mL | IC80 neutralization (TZM.bl) [15]: > 50 µg/mL | IC50 neutralization (TZM.bl) [16]: 47.6 µg/mL | IC80 neutralization (TZM.bl) [16]: > 50 µg/mL | IC50 neutralization (TZM.bl) [17]: 0.029 µg/mL | IC80 neutralization (TZM.bl) [17]: 0.144 µg/mL | IC50 neutralization (TZM.bl) [18]: 3.13 µg/mL | IC80 neutralization (TZM.bl) [18]: > 50 µg/mL | IC50 neutralization (TZM.bl) [19]: 0.67 µg/mL | IC80 neutralization (TZM.bl) [19]: > 50 µg/mL | IC50 neutralization (TZM.bl) [20]: 0.035 µg/mL | IC80 neutralization (TZM.bl) [20]: 0.42 µg/mL | IC50 neutralization (TZM.bl) [21]: 1.72 µg/mL | IC80 neutralization (TZM.bl) [21]: 44.7 µg/mL | IC50 neutralization (TZM.bl) [22]: 0.001 µg/mL | IC80 neutralization (TZM.bl) [22]: 0.003 µg/mL | IC50 neutralization (TZM.bl) [23]: 0.044 µg/mL | IC80 neutralization (TZM.bl) [23]: 1.56 µg/mL | IC50 neutralization (TZM.bl) [24]: 1.44 µg/mL | IC80 neutralization (TZM.bl) [24]: > 50 µg/mL | IC50 neutralization (TZM.bl) [25]: 0.048 µg/mL | IC80 neutralization (TZM.bl) [25]: 0.256 µg/mL | IC50 neutralization (TZM.bl) [26]: 0.02 µg/mL | IC80 neutralization (TZM.bl) [26]: 0.087 µg/mL | IC50 neutralization (TZM.bl) [27]: 0.024 µg/mL | IC80 neutralization (TZM.bl) [27]: 0.125 µg/mL | IC50 neutralization (TZM.bl) [28]: > 50 µg/mL | IC80 neutralization (TZM.bl) [28]: > 50 µg/mL | IC50 neutralization (TZM.bl) [29]: 25.4 µg/mL | IC80 neutralization (TZM.bl) [29]: > 50 µg/mL | IC50 neutralization (TZM.bl) [30]: > 50 µg/mL | IC80 neutralization (TZM.bl) [30]: > 50 µg/mL | IC50 neutralization (TZM.bl) [31]: 21.9 µg/mL | IC80 neutralization (TZM.bl) [31]: > 50 µg/mL
